For assay [1], the target named is T1, CD20 on the surface of Raji cells (human, UniProt P11836 1-297).
T1 construct: whole, on cells; Raji cells are described as human B lymphoma cells, CD20 positive; also called human CD20
T1 sequence (looked up): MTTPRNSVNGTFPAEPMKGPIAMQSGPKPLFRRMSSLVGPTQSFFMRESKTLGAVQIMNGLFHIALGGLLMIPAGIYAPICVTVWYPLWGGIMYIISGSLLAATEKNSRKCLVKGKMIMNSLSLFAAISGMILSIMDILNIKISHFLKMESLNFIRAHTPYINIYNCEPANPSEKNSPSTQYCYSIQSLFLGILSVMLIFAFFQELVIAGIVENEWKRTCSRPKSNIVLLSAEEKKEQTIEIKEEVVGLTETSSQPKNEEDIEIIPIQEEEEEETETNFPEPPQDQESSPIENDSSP
Nature of the assay: flow cytometry on Raji cells (CD20 positive), fluorescent secondary antibody, µg/mL is the unit of the axis; fit value of a flat curve.

Assay [2] addresses T1, CD20 on the surface of Raji cells. Nature of the assay: flow cytometry on Raji cells (CD20 positive), MFI dose curve.
In assay [3] the target is T2, human CD3 on the surface of Jurkat cells (human, UniProt P07766 23-207; P04234 22-171; P09693 23-182).
T2 construct: whole, on cells
Nature of the assay: flow cytometry on Jurkat cells (CD3-positive), MFI dose curve.

Assay [4] concerns the target T3, cynomolgus monkey CD3e overexpressed on the surface of CHO cells (cynomolgus monkey, UniProt Q95LI5 22-198).
T3 construct: whole, on cells; also called CHO Cyno CD3e cells
Nature of the assay: flow cytometry on CHO cells overexpressing cynomolgus monkey CD3e.

Assay [5] addresses T4, recombinant human CD3ε (Novoprotein, C578) (human, UniProt P07766 23-126).
T4 construct: Bought protein coated on the ELISA plate
Nature of the assay: ELISA, plate coated with recombinant human CD3ε, anti-human IgG4 Fc-HRP detection.

The target in assay [6] is T3, cynomolgus monkey CD3e overexpressed on …. Nature of the assay: flow cytometry on CHO cells overexpressing cynomolgus monkey CD3e, fluorescent secondary antibody.

Substitutions are numbered along the chain they refer to.

T2 sequence (P07766 23-207, chain 1 of 3): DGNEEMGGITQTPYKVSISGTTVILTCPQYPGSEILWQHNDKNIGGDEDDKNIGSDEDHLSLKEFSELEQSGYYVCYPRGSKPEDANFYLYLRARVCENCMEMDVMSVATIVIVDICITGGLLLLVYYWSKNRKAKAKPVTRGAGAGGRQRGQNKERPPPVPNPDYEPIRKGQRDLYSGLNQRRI
T2 sequence (P04234 22-171, chain 2 of 3): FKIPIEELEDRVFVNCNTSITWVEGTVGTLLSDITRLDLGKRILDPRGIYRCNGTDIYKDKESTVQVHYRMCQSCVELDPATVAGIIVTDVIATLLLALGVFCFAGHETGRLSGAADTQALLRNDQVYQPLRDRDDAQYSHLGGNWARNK
T2 sequence (P09693 23-182, chain 3 of 3): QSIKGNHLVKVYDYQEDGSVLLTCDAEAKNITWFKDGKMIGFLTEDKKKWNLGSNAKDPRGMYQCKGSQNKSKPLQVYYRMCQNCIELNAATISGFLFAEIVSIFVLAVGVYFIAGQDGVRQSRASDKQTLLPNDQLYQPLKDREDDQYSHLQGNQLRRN
T3 sequence (Q95LI5 22-198): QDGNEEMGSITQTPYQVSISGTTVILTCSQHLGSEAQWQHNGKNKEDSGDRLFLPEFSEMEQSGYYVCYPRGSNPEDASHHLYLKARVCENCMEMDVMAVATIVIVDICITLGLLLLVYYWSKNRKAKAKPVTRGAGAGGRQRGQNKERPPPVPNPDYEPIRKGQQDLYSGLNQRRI
T4 sequence (P07766 23-126 limits assumed): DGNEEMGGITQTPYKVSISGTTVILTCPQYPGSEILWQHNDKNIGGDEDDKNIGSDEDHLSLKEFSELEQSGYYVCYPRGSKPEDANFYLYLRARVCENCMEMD

Anti-KLH IgG4 (antibody) registered an EC50 in assay [1] of 52 mg/L.

Regarding “REGN1979 (Regeneron Pharmaceuticals) (bispecific antibody)”, the EC50 in assay [2] is 30.1 mg/L; in assay [3], 4.7 mg/L.

B1: bispecific antibody molecule TZT6 (bispecific antibody, human IgG4 S228P, kappa)
heavy: QVQLVQSGAEVKKPGSSVKVSCKASGYAFSYSWINWVRQAPGQGLEWMGRIFPGDGDTDYNGKFKGRVTITADKSTSTAYMELSSLRSEDTAVYYCARNVFDGYWLVYWGQGTLVTVSSASTKGPSVFPLAPCSRSTSESTAALGCLVKDYFPEPVTVSWNSGALTSGVHTFPAVLQSSGLYSLSSVVTVPSSSLGTKTYTCNVDHKPSNTKVDKRVESKYGPPCPPCPAPEFLGGPSVFLFPPKPKDTLMISRTPEVTCVVVDVSQEDPEVQFNWYVDGVEVHNAKTKPREEQFNSTYRVVSVLTVLHQDWLNGKEYKCKVSNKGLPSSIEKTISKAKGQPREPQVYTLPPCQEEMTKNQVSLWCLVKGFYPSDIAVEWESNGQPENNYKTTPPVLDSDGSFFLYSRLTVDKSRWQEGNVFSCSVMHEALHNHYTQKSLSLSLGK
light: DIVMTQTPLSLPVTPGEPASISCRSSKSLLHSNGITYLYWYLQKPGQSPQLLIYQMSNLVSGVPDRFSGSGSGTDFTLKISRVEAEDVGVYYCAQNLELPYTFGGGTKVEIKRTVAAPSVFIFPPSDEQLKSGTASVVCLLNNFYPREAKVQWKVDNALQSGNSQESVTEQDSKDSTYSLSSTLTLSKADYEKHKVYACEVTHQGLSSPVTKSFNRGEC
chain: QAVVTQEPSLTVSPGGTVTLTCRSSTGAVTTSNYANWVQQKPGQAPRGLIGGTNKRAPGTPARFSGSLLGGKAALTLSGVQPEDEAEYYCALWYSNLWVFGCGTKLTVLGGGGSGGGGSGGGGSGGGGSEVQLVESGGGLVQPGGSLKLSCAASGFTFSTYAMNWVRQAPGKCLEWVGRIRSKYNNYATYYADSVKDRFTISRDDSKNSLYLQMNSLKTEDTAVYYCVRHGNFGNSYVSWFAYWGQGTLVTVSSGGGGSGGGGSESKYGPPCPPCPAPEFLGGPSVFLFPPKPKDTLMISRTPEVTCVVVDVSQEDPEVQFNWYVDGVEVHNAKTKPREEQFNSTYRVVSVLTVLHQDWLNGKEYKCKVSNKGLPSSIEKTISKAKGQPREPQVCTLPPSQEEMTKNQVSLSCAVKGFYPSDIAVEWESNGQPENNYKTTPPVLDSDGSFFLVSRLTVDKSRWQEGNVFSCSVMHEALHNRFTQKSLSLSLGK
notes: also called anti-CD3/CD20 bispecific antibody TZT6
Turning to B1, the results for the EC50 in assay [2], in assay [3] and in assay [5] were 3.67 mg/L, 4.44 mg/L and 0.0214 mg/L, respectively. Further, the binding result in assay [4] is reported as “binds”.

B2: bispecific antibody molecule TZT7 (bispecific antibody, human IgG4 S228P, kappa)
heavy: B1 heavy with Y348C, C353S, W365S, L367A, Y406V, H434R, Y435F
light: B1 light
chain: QVQLVQSGAEVKKPGSSVKVSCKASGYAFSYSWINWVRQAPGQGLEWMGRIFPGDGDTDYNGKFKGRVTITADKSTSTAYMELSSLRSEDTAVYYCARNVFDGYWLVYWGQGTLVTVSSASTKGPSVFPLAPCSRSTSESTAALGCLVKDYFPEPVTVSWNSGALTSGVHTFPAVLQSSGLYSLSSVVTVPSSSLGTKTYTCNVDHKPSNTKVDKRVASGGGGSGGGGSQAVVTQEPSLTVSPGGTVTLTCRSSTGAVTTSNYANWVQQKPGQAPRGLIGGTNKRAPGTPARFSGSLLGGKAALTLSGVQPEDEAEYYCALWYSNLWVFGCGTKLTVLGGGGSGGGGSGGGGSGGGGSEVQLVESGGGLVQPGGSLKLSCAASGFTFSTYAMNWVRQAPGKCLEWVGRIRSKYNNYATYYADSVKDRFTISRDDSKNSLYLQMNSLKTEDTAVYYCVRHGNFGNSYVSWFAYWGQGTLVTVSSGGGGSGGGGSESKYGPPCPPCPAPEFLGGPSVFLFPPKPKDTLMISRTPEVTCVVVDVSQEDPEVQFNWYVDGVEVHNAKTKPREEQFNSTYRVVSVLTVLHQDWLNGKEYKCKVSNKGLPSSIEKTISKAKGQPREPQVYTLPPCQEEMTKNQVSLWCLVKGFYPSDIAVEWESNGQPENNYKTTPPVLDSDGSFFLYSRLTVDKSRWQEGNVFSCSVMHEALHNHYTQKSLSLSLGK
notes: IgG4 Fc (G4 FC in the vector's name); also called anti-CD3/CD20 bispecific antibody TZT7
Consider B2, for which the figures for the EC50 in assay [2], in assay [3] and in assay [5] were 0.515 mg/L, 26.6 mg/L and 0.0856 mg/L, respectively. The binding result in assay [4] is “binds”.

B3: JSCD3 (antibody, human IgG4 S228P, kappa, V domains shown)
VH: EVQLVESGGGLVQPGGSLKLSCAASGFTFSTYAMNWVRQAPGKGLEWVGRIRSKYNNYATYYADSVKDRFTISRDDSKNSLYLQMNSLKTEDTAVYYCVRHGNFGNSYVSWFAYWGQGTLVTVSS
VL: QAVVTQEPSLTVSPGGTVTLTCRSSTGAVTTSNYANWVQQKPGQAPRGLIGGTNKRAPGTPARFSGSLLGGKAALTLSGVQPEDEAEYYCALWYSNLWVFGGGTKLTVLR
notes: humanized from murine SP34; also called humanized anti-CD3 antibody JSCD3; positive control
In the case of B3, the binding result in assay [6] is given as “binds”.

Source of the values: patent US20250154275A1 (SHANGHAI JUNSHI BIOSCIENCES, published 2025).
